According to patent US8541373B2, “BChE albumin fusions for the treatment of cocaine abuse” (priority 2009, dated 2013):

Test system: cocaine
Assay: Plasma cocaine, benzoylecgonine and ecgonine methyl ester (LC-MS) and cocaine PK after IV cocaine post-AlbuBChE
Type: in vivo, cynomolgus monkeys
Experimental: Blood was placed into K2EDTA blood collection tubes with esterase inhibitor diisopropylfluorophosphate (DFP). Tubes were inverted several times and placed on wet ice upon collection. Samples were centrifuged at 2-8° C. within 45 minutes of collection. The resultant plasma was recovered and a single 200 μL aliquot of plasma was placed into polypropylene tubes. Plasma samples were frozen over dry ice and stored at −75±15° C.
The following outline describes the LC-MS-based assay employed for the measurement of cocaine in plasma samples. Prior to MS analysis, plasma samples, calibration standards and controls were extracted using supported liquid extraction (SLE-ISOLUTE, Biotage). Twenty-five microliters of samples (25 μL) received 150 μl of 5% Ammonium hydroxide and 25 μl internal standard solution (Cocaine-d3). After mixing and transfer to SLE plate, samples were eluted with methylene chloride and evaporated to dryness. After resuspension in 50 μl of reconstitution solution—5% ACM in 10 mM ammonium acetate in water, 10 μl was injected onto Thermo Hypercarb column at 0.5 ml/min. Mobile phase was biphasic. Mass spectrophotometric detection was performed using Api 4000, APCI positive interface and Multiple Reaction Monitoring (MRM). Plasma concentrations of cocaine, benzoylecgonine and ecgonine methyl ester were determined using this assay.
When the data permits, pharmacokinetic parameter values for cocaine and its metabolites were determined using plasma concentration-times profiles for individual animals at all the study days of cocaine administration. […] Specifically the model for non-compartmental analysis with IV bolus input for cocaine and extravascular input for the metabolites.

[1] = 0.2 mg/kg IM, cocaine 1 mg/kg IV 120 hr post-AlbuBChE, 40 min after cocaine
[2] = 0.2 mg/kg IM, cocaine 1 mg/kg IV 120 hr post-AlbuBChE, 60 min after cocaine
[3] = 0.2 mg/kg IM, cocaine 1 mg/kg IV 240 hr post-AlbuBChE
[4] = 0.2 mg/kg IM, cocaine 1 mg/kg IV 240 hr post-AlbuBChE, 5 min after cocaine
[5] = 0.2 mg/kg IM, cocaine 1 mg/kg IV 240 hr post-AlbuBChE, 10 min after cocaine
[6] = 0.2 mg/kg IM, cocaine 1 mg/kg IV 240 hr post-AlbuBChE, 15 min after cocaine
[7] = 0.2 mg/kg IM, cocaine 1 mg/kg IV 240 hr post-AlbuBChE, 20 min after cocaine
[8] = 0.2 mg/kg IM, cocaine 1 mg/kg IV 240 hr post-AlbuBChE, 30 min after cocaine
[9] = 0.2 mg/kg IM, cocaine 1 mg/kg IV 240 hr post-AlbuBChE, 40 min after cocaine
[10] = 0.2 mg/kg IM, cocaine 1 mg/kg IV 240 hr post-AlbuBChE, 60 min after cocaine
[11] = 1 mg/kg IM, cocaine 1 mg/kg IV 2 hr post-AlbuBChE
[12] = 1 mg/kg IM, cocaine 1 mg/kg IV 2 hr post-AlbuBChE, 5 min after cocaine
[13] = 1 mg/kg IM, cocaine 1 mg/kg IV 2 hr post-AlbuBChE, 10 min after cocaine
[14] = 1 mg/kg IM, cocaine 1 mg/kg IV 2 hr post-AlbuBChE, 15 min after cocaine
[15] = 1 mg/kg IM, cocaine 1 mg/kg IV 2 hr post-AlbuBChE, 20 min after cocaine
[16] = 1 mg/kg IM, cocaine 1 mg/kg IV 2 hr post-AlbuBChE, 30 min after cocaine
[17] = 1 mg/kg IM, cocaine 1 mg/kg IV 2 hr post-AlbuBChE, 40 min after cocaine
[18] = 1 mg/kg IM, cocaine 1 mg/kg IV 2 hr post-AlbuBChE, 60 min after cocaine
[19] = 1 mg/kg IM, cocaine 1 mg/kg IV 48 hr post-AlbuBChE
[20] = 1 mg/kg IM, cocaine 1 mg/kg IV 48 hr post-AlbuBChE, 5 min after cocaine
[21] = 1 mg/kg IM, cocaine 1 mg/kg IV 48 hr post-AlbuBChE, 10 min after cocaine
[22] = 1 mg/kg IM, cocaine 1 mg/kg IV 48 hr post-AlbuBChE, 15 min after cocaine
[23] = 1 mg/kg IM, cocaine 1 mg/kg IV 48 hr post-AlbuBChE, 20 min after cocaine
[24] = 1 mg/kg IM, cocaine 1 mg/kg IV 48 hr post-AlbuBChE, 30 min after cocaine
[25] = 1 mg/kg IM, cocaine 1 mg/kg IV 48 hr post-AlbuBChE, 40 min after cocaine
[26] = 1 mg/kg IM, cocaine 1 mg/kg IV 48 hr post-AlbuBChE, 60 min after cocaine
[27] = 1 mg/kg IM, cocaine 1 mg/kg IV 96 hr post-AlbuBChE
[28] = 1 mg/kg IM, cocaine 1 mg/kg IV 96 hr post-AlbuBChE, 5 min after cocaine
[29] = 1 mg/kg IM, cocaine 1 mg/kg IV 96 hr post-AlbuBChE, 10 min after cocaine
[30] = 1 mg/kg IM, cocaine 1 mg/kg IV 96 hr post-AlbuBChE, 15 min after cocaine

Which results are given for AlbuBChE?
Ecgonine methyl ester plasma concentration (mean) [1]: 98 ng/mL; Mean benzoylecgonine plasma concentration [1]: 61.4 ng/mL; Mean cocaine plasma concentration [1]: 141 ng/mL; Ecgonine methyl ester plasma concentration (mean) [2]: 82.9 ng/mL; Mean benzoylecgonine plasma concentration [2]: 66.2 ng/mL; Mean cocaine plasma concentration [2]: 64.7 ng/mL; Mean benzoylecgonine AUC(0-t) [3]: 4089 ng·min/mL; Mean cocaine AUC % Extrap [3]: 21.6%; Mean cocaine AUC(0-t) [3]: 13693 ng·min/mL; Mean cocaine AUC(0-∞) [3]: 17650 ng·min/mL; Mean cocaine C0 [3]: 549 ng/mL; Mean cocaine CI [3]: 57.4 mL/min/kg; Mean cocaine Vss [3]: 2.181 L/kg; Mean cocaine t½ [3]: 29.2 min; Ecgonine methyl ester plasma concentration (mean) [4]: 20.1 ng/mL; Mean benzoylecgonine plasma concentration [4]: 53.5 ng/mL; Mean cocaine plasma concentration [4]: 453 ng/mL; Ecgonine methyl ester plasma concentration (mean) [5]: 23.1 ng/mL; Mean benzoylecgonine plasma concentration [5]: 53.3 ng/mL; Mean cocaine plasma concentration [5]: 379 ng/mL; Ecgonine methyl ester plasma concentration (mean) [6]: 25.1 ng/mL; Mean benzoylecgonine plasma concentration [6]: 62.9 ng/mL; Mean cocaine plasma concentration [6]: 297 ng/mL; Ecgonine methyl ester plasma concentration (mean) [7]: 28.3 ng/mL; Mean benzoylecgonine plasma concentration [7]: 63.7 ng/mL; Mean cocaine plasma concentration [7]: 254 ng/mL; Ecgonine methyl ester plasma concentration (mean) [8]: 33.9 ng/mL; Mean benzoylecgonine plasma concentration [8]: 69.8 ng/mL; Mean cocaine plasma concentration [8]: 189 ng/mL; Ecgonine methyl ester plasma concentration (mean) [9]: 38.8 ng/mL; Mean benzoylecgonine plasma concentration [9]: 74.5 ng/mL; Mean cocaine plasma concentration [9]: 133 ng/mL; Ecgonine methyl ester plasma concentration (mean) [10]: 41.4 ng/mL; Mean benzoylecgonine plasma concentration [10]: 80.9 ng/mL; Mean cocaine plasma concentration [10]: 89.5 ng/mL; Mean benzoylecgonine AUC(0-t) [11]: 1960 ng·min/mL; Mean cocaine AUC(0-t) [11]: 7880 ng·min/mL; Mean cocaine C0 [11]: 422 ng/mL; Ecgonine methyl ester plasma concentration (mean) [12]: 235 ng/mL; Mean benzoylecgonine plasma concentration [12]: 30.1 ng/mL; Mean cocaine plasma concentration [12]: 308 ng/mL; Ecgonine methyl ester plasma concentration (mean) [13]: 227 ng/mL; Mean benzoylecgonine plasma concentration [13]: 33.2 ng/mL; Mean cocaine plasma concentration [13]: 235 ng/mL; Ecgonine methyl ester plasma concentration (mean) [14]: 276 ng/mL; Mean benzoylecgonine plasma concentration [14]: 32.5 ng/mL; Mean cocaine plasma concentration [14]: 179 ng/mL; Ecgonine methyl ester plasma concentration (mean) [15]: 301 ng/mL; Mean benzoylecgonine plasma concentration [15]: 32.5 ng/mL; Mean cocaine plasma concentration [15]: 73.7 ng/mL; Ecgonine methyl ester plasma concentration (mean) [16]: 291 ng/mL; Mean benzoylecgonine plasma concentration [16]: 28.9 ng/mL; Mean cocaine plasma concentration [16]: 102 ng/mL; Ecgonine methyl ester plasma concentration (mean) [17]: 202 ng/mL; Mean benzoylecgonine plasma concentration [17]: 38.4 ng/mL; Mean cocaine plasma concentration [17]: 96.9 ng/mL; Ecgonine methyl ester plasma concentration (mean) [18]: 189 ng/mL; Mean benzoylecgonine plasma concentration [18]: 29.6 ng/mL; Mean cocaine plasma concentration [18]: 19.7 ng/mL; Mean benzoylecgonine AUC(0-t) [19]: 1668 ng·min/mL; Mean cocaine AUC % Extrap [19]: 11.9%; Mean cocaine AUC(0-t) [19]: 5965 ng·min/mL; Mean cocaine AUC(0-∞) [19]: 6764 ng·min/mL; Mean cocaine C0 [19]: 226 ng/mL; Mean cocaine CI [19]: 150 mL/min/kg; Mean cocaine Vss [19]: 4.304 L/kg; Mean cocaine t½ [19]: 19.0 min; Ecgonine methyl ester plasma concentration (mean) [20]: 201 ng/mL; Mean benzoylecgonine plasma concentration [20]: 24.0 ng/mL; Mean cocaine plasma concentration [20]: 176 ng/mL; Ecgonine methyl ester plasma concentration (mean) [21]: 32.2 ng/mL; Mean benzoylecgonine plasma concentration [21]: 23.7 ng/mL; Mean cocaine plasma concentration [21]: 140 ng/mL; Ecgonine methyl ester plasma concentration (mean) [22]: 48.2 ng/mL; Mean benzoylecgonine plasma concentration [22]: 24.9 ng/mL; Mean cocaine plasma concentration [22]: 152 ng/mL; Ecgonine methyl ester plasma concentration (mean) [23]: 56.2 ng/mL; Mean benzoylecgonine plasma concentration [23]: 26.7 ng/mL; Mean cocaine plasma concentration [23]: 128 ng/mL; Ecgonine methyl ester plasma concentration (mean) [24]: 63.8 ng/mL; Mean benzoylecgonine plasma concentration [24]: 29.8 ng/mL; Mean cocaine plasma concentration [24]: 87.0 ng/mL; Ecgonine methyl ester plasma concentration (mean) [25]: 64.9 ng/mL; Mean benzoylecgonine plasma concentration [25]: 29.6 ng/mL; Mean cocaine plasma concentration [25]: 62.3 ng/mL; Ecgonine methyl ester plasma concentration (mean) [26]: 57.3 ng/mL; Mean benzoylecgonine plasma concentration [26]: 29.8 ng/mL; Mean cocaine plasma concentration [26]: 29.1 ng/mL; Mean benzoylecgonine AUC(0-t) [27]: 2741 ng·min/mL; Mean cocaine AUC % Extrap [27]: 18.4%; Mean cocaine AUC(0-t) [27]: 10044 ng·min/mL; Mean cocaine AUC(0-∞) [27]: 12313 ng·min/mL; Mean cocaine C0 [27]: 288 ng/mL; Mean cocaine CI [27]: 81.6 mL/min/kg; Mean cocaine Vss [27]: 2.94 L/kg; Mean cocaine t½ [27]: 23.9 min; Ecgonine methyl ester plasma concentration (mean) [28]: 138 ng/mL; Mean benzoylecgonine plasma concentration [28]: 43.9 ng/mL; Mean cocaine plasma concentration [28]: 265 ng/mL; Ecgonine methyl ester plasma concentration (mean) [29]: 39.8 ng/mL; Mean benzoylecgonine plasma concentration [29]: 41.2 ng/mL; Mean cocaine plasma concentration [29]: 245 ng/mL; Ecgonine methyl ester plasma concentration (mean) [30]: 42.9 ng/mL; Mean benzoylecgonine plasma concentration [30]: 40.0 ng/mL; Mean cocaine plasma concentration [30]: 218 ng/mL
